The supplement of paper PMC10567573

B1: IFRG15 (parent)
chain: INRADYCPECYPDNPANRSLVLPW
B2: HMOX1 (parent)
chain: YHIYVALEEEIERNKESPVFAPVY

Variants of: B1
Test: protein stability index of a GFP-peptide fusion (GPS, HEK-293T) (PSI 1-6); higher = more stable
Conditions: c terminus: a fixed tail appended
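Note: lentivirally expressed fusions sorted by FACS into six bins by GFP to DsRed ratio, PSI derived from sequencing read proportions per bin multiplied by bin number.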

Protein stability index, by site and new letter:
R3: G 2.65 | Q 2.32 | P 2.42 | L 2.14 | T 2.71 | V 1.74 | S 2.2 | K 2.39 | H 2.39 | F 2.12 | M 1.91 | E 2.42 | I 1.54 | W 1.35 | A 2.42 | D 2.59 | Y 1.9 | N 2.36 | C 1.66
N2: G 2.15 | R 1.26 | S 1.82 | V 1.91 | D 2.64 | Q 2.03 | H 1.84 | F 1.55 | A 1.65 | E 2.11 | I 1.7 | K 2.29 | M 1.88 | W 1.61 | L 1.79 | Y 1.7 | P 2.92 | C 3.06 | T 1.78
D5: A 1.78 | C 1.92 | Y 1.15 | R 2.39 | I 1.99 | N 1.88 | W 1.91 | L 1.6 | T 1.55 | G 1.91 | K 1.4 | V 2.21 | P 1.91 | H 2.09 | S 2.07 | E 1.96 | M 1.95 | Q 1.93 | F 2.03
I1: P 2.21 | H 2.44 | R 2.05 | C 2.53 | M 2.38 | W 1.33 | Y 1.49 | S 2.14 | Q 2.26 | A 2.15 | N 3.18 | F 2.34 | V 1.92 | K 2.42 | G 2.05 | T 1.74 | D 2.75 | E 1.93 | L 2.29
A4: L 2.09 | Q 2.28 | S 2.28 | C 1.78 | W 1.68 | M 1.51 | R 1.83 | P 2.47 | G 2.55 | E 2.48 | N 2.2 | D 1.95 | V 1.83 | H 1.65 | I 2.66 | K 2.16 | T 2.1 | F 1.93 | Y 2.63
Y6: I 2.24 | E 2.52 | P 3.33 | K 2.66 | L 2.05 | N 2.86 | D 2.9 | M 2.21 | H 3.04 | C 2.67 | A 2.62 | F 2.22 | G 2.65

Variants of: B2
Test: as above
Conditions: c terminus: a fixed tail appended

Protein stability index: each site, then its substitutions
Y24: E 3.33 | W 1.98 | C 2.23 | M 2.22 | K 2.69 | R 3.01 | S 2.84 | I 2.49 | V 2.51 | A 3.11 | N 2.9 | P 3.47 | H 2.48 | L 2.31 | G 2.83 | T 2.96 | Q 3.09 | D 3.35 | F 1.78
P22: C 1.54 | G 1.76 | T 2.1 | N 1.68 | D 1.8 | K 2.14 | Y 1.77 | S 1.55 | H 1.98 | V 3.15 | M 3.18 | W 1.87 | F 2.91 | I 2.61 | Q 1.98 | A 2.12 | E 2.52 | R 2.06
V23: L 1.77 | W 2.65 | A 2.27 | C 2.12 | S 1.85 | I 1.87 | E 2.63 | Q 1.99 | Y 1.64 | F 1.78 | M 1.89 | G 2.1 | K 2.09 | D 2.69 | H 1.84 | R 2.87 | T 1.83 | N 1.78 | P 2.69
A21: W 1.7 | V 1.76 | Y 1.49
